Measurements as given in US11667697 (VANDERBILT UNIVERSITY, dated 2023).

What was measured:
VACV H3 protein [1] = target: T1, VACV H3 protein (vaccinia virus, UniProt P07240 1-278); assay: lysate ELISA
T1 sequence: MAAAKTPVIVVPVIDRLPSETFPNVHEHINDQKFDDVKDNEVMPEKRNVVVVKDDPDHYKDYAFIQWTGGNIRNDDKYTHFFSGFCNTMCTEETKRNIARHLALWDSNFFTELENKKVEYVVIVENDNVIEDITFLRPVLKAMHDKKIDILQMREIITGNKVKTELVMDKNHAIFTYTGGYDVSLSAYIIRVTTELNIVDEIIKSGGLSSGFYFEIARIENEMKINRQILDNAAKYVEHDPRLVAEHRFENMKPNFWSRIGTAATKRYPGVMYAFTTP

VACV L1 protein [2] = target: T2, VACV L1 protein (vaccinia virus, UniProt P07612 1-185); assay: cell-based or functional assay
T2 sequence: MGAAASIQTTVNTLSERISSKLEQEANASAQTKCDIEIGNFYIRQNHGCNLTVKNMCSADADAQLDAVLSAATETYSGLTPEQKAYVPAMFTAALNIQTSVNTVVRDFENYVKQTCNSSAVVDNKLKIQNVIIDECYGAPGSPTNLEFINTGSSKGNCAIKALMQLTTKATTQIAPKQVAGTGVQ

VACV L1 protein [3] = target: T2, VACV L1 protein; assay: purified antigen ELISA
VACV D8 protein [4] = target: T3, VACV D8 protein (vaccinia virus, UniProt P04195 1-261); assay: cell-based or functional assay
T3 sequence: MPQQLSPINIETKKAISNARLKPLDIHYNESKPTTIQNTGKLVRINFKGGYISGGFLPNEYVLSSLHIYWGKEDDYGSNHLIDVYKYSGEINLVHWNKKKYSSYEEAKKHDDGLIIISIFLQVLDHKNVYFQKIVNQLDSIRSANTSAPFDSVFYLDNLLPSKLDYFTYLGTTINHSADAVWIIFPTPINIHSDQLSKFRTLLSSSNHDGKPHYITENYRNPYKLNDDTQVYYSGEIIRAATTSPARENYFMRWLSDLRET

VACV D8 protein [5] = target: T3, VACV D8 protein; assay: lysate ELISA
VACV D8 protein [6] = target: T3, VACV D8 protein; assay: purified antigen ELISA
VACV A33 protein [7] = target: T4, VACV A33 protein (vaccinia virus, UniProt P68617 58-185); assay: cell-based or functional assay
VACV A33 protein [8] = target: T4, VACV A33 protein; assay: lysate ELISA
VACV A33 protein [9] = target: T4, VACV A33 protein; assay: purified antigen ELISA
VACV H3 protein [10] = target: T1, VACV H3 protein; assay: cell-based or functional assay
VACV H3 protein [11] = target: T1, VACV H3 protein; assay: purified antigen ELISA
VACV B5 protein [12] = target: T5, VACV B5 protein (vaccinia virus, UniProt Q01227 20-275); assay: cell-based or functional assay
VACV B5 protein [13] = target: T5, VACV B5 protein; assay: lysate ELISA
VACV B5 protein [14] = target: T5, VACV B5 protein; assay: purified antigen ELISA

B1: MPXV-76 (antibody, V domains shown)
VH: EVQLVESGGGLVKPGESLKISCAASGFSFNNAWMNWVRQAPGKGLEWVGRIKTHADGGTTDYAAPVTGRFTISRDDSKNTLSLQMSSLKTEDTAVYYCTTSFTFPRRIFAYWGQGTLV
VL: EIVLTQSPATLSLSPGERATLSCRASQSVSSYLAWYQQKPGQAPRLLIYDTSNRATGIPARFSGSGSGTDFTLTISSLEPEDLAVYYCQLRNSWPPTFGPGTKVDIK
notes: human IgG1, anti-H3
VACV H3 protein [1]
  EC50: 0.008 µg/mL

B2: VACV-34 (antibody, V domains shown)
VH: QVQLVESGGGLVQPGRSLRLSCAASGFTFDDYAMHWVRQAPGKGLEWVSGLSWNSGSIGYADSVKGRFTISRDNAKNSLYLQMNSLRAEDTALYYCAKETEKYYYDSSGYDYWGQGTLVTVSS
VL: EIVLTQSPGTLSLSPGERATLSCRASQSVSSIYLAWYQQKPGQAPRLLIYGASSRATGIPDRFSGSGSGTDFTLTISRLEPEDFAVYYCQQYGSRGTFGQGTKLEIK
notes: human IgG1, anti-L1
VACV L1 protein [2]
  PRNT Emax, VACV MV: 76%
  PRNT Emax, VACV MV+C': 78%
  PRNT IC50, VACV MV: 3.3 µg/mL
  PRNT IC50, VACV MV+C': 0.96 µg/mL
VACV L1 protein [3]
  EC50: 0.04 µg/mL

B3: VACV-249 (antibody, V domains shown)
VH: QVQLVESGPGLVKPSQTLSLTCTVSGGSISRGIYYWSWIRQPAGKGLEWIGRIYTSGSTNYNPSLKSRVTISVDTSKNQFSLKLSSVTAADTAVYYCARDGWYGWYLDLWGRGTLVTVSS
VL: EIVMTQSPATLSVSPGERATLSCRASQSVSSDLAWYQQKPGQAPRLLIYGASTRATGIPARFSGSGSGTEFTLTISSLQSEDFAVYYCQQYNNWPGTFGGGTKVDIK
notes: human IgG1, anti-D8
VACV D8 protein [4]
  PRNT Emax, VACV MV+C': 70%
  PRNT IC50, VACV MV+C': 0.2 µg/mL
VACV D8 protein [5]
  EC50: 0.3 µg/mL
VACV D8 protein [6]
  EC50: 2.8 µg/mL

B4: VACV-128 (antibody, V domains shown)
VH: EVQLVQSGAEVKKPGATVKISCKVSGYTFTDYYMHWVQQAPGKGLKWMGLLDPLDGETIYSEKFQGKVTITADTSTDTAYMELSSLRSEDTAVYYCARELTGYLNYWGQGTLVTVSS
VL: DIQMTQSPSSLSASVGDRVTITCRASPGICNYLAWYQHKPGKVPKLLIYAASTLQSGVPSRFTGVGSGTNFTLTINNLPPENVATYYCQKYNSAPHTFGQGTKVDIK
notes: human IgG1, anti-D8
VACV D8 protein [4]
  PRNT Emax, VACV MV+C': 86%
  PRNT IC50, VACV MV+C': 0.5 µg/mL
VACV D8 protein [5]
  EC50: 0.3 µg/mL
VACV D8 protein [6]
  EC50: 1.1 µg/mL

B5: MPXV-51 (antibody, V domains shown)
VH: QLQLQESGPGLVKPSETLSLSCTVSGGSINSRTYYWGWIRQPPGKGPEWIGTVFHNVSTLYTSSLRSRVTISVDTSKNRFSLKLTSVTAADTAVYFCGRLTPRNLFRGTLVRWVDPWGQGILVTVSS
VL: EIVLAQSPGTLSLSPGERATLSCRASHNLNSNYLAWYQQKPGQAPRLLIYGASSRATGIPDRFTGSGSGTDFTLTISRLEPEDFAVYYCQQYAGSLTFGGGTKVDIK
notes: human IgG1, anti-A33
VACV A33 protein [7]
  PRNT Emax, VACV EV+C': 50%
  PRNT IC50, VACV EV+C': 0.1 µg/mL
VACV A33 protein [8]
  EC50: 0.05 µg/mL
VACV A33 protein [9]
  EC50: 0.04 µg/mL

B6: VACV-314 (antibody, V domains shown)
VH: QVQLVQSGPGLVKPSETLSLTCTVSGGSISSYYWSWIRQPPGKGLEYIGHIYYSGGTKYNPSLRSRVTISVDTSKNQFSLKLTSVTAADTAVYYCARLAGRKPDADSWGQGTLVTVSS
VL: QPVLTQEPSLTVSPGGTVTLTCASSTGAVTSGFFPNWLQQKPGQAPRALIYSTNNKHSWTPARFSGSLLGGKAALTLSGVQPEDEAEYYCLLYYGGVVVFGGGTKLTVL
notes: human IgG3, anti-H3
VACV H3 protein [10]
  PRNT Emax, VACV MV+C': 74%
  PRNT IC50, VACV MV+C': 0.1 µg/mL
VACV H3 protein [1]
  EC50: 0.003 µg/mL
VACV H3 protein [11]
  EC50: 0.1 µg/mL

B7: VACV-33 (antibody, V domains shown)
VH: QLQLQESGPGLVKPSETLSLTCTVSGGSISSGGYYWGWIRQPPGKGLEWIASIYYSGSTYYNPSLKSRVTISVDTSKTQFSLKLSSVTAADTAVYYCARQSSSTGGFHYWGQGTLVTVSS
VL: QSVLTQPPSVSGAPGQRVTISCTGSSSNIGAGYDVHWYQHLPGTAPKLLIYGNSNRPSGVPDRFSGSKSGTSASLAITGLQAEDEANYYCQSYDSSLSGREVFGGGTQLTVL
notes: human IgG1, anti-L1
VACV L1 protein [2]
  PRNT Emax, VACV MV: 56%
  PRNT Emax, VACV MV+C': 71%
  PRNT IC50, VACV MV: 0.3 µg/mL
  PRNT IC50, VACV MV+C': 0.7 µg/mL
VACV L1 protein [3]
  EC50: 0.02 µg/mL

B8: VACV-22 (antibody, V domains shown)
VH: QVQLVESGGGVVQPGRSLRLSCAASGFTFSNSGMHWVRQAPGKGLEWVAVIWFDGTNKYYADSVKGRFTISRDNSKNTLYLQMNSLRAEDTAVYYCARVPCGGDCYSGYLQHWGQGTLVTVSS
VL: AIVMTQSPATLSVSPGERATLSCRASQSVSSTLAWYQQKPGQAPRLLIYGASTKATGIPARFSGSGSGTEFTLTISSLQSEDFAVYYCQHYNNWPPLLTFGGGTKVDIK
notes: human IgG1, anti-A33
VACV A33 protein [7]
  PRNT Emax, VACV EV+C': 87%
  PRNT IC50, VACV EV+C': 9.7 µg/mL
VACV A33 protein [8]
  EC50: > 0.008 µg/mL
VACV A33 protein [9]
  EC50: 0.03 µg/mL

B9: MPXV-25 (antibody, V domains shown)
V domain 1: QVQLVESGGGVVQPGRSLKISCAASGFTFSDSGLHWVRQAPGKGLECVAFIWYDGSTKYYADSVKGRFTISRDNSRNTLYLQMKSLRAEDTAVYYCARELGYCSGGTCYSMGAFDIWGQGTLVTVSQ
V domain 2: QSVLTQPASVSGSPGQSITISCTGTSSDVGSYNLVSWYQQHPGKAPKLMIYEVSKRPSGVSNRFSGSKSDNTASLTISGLQAEDEADYYCCSYVGSSTSVFGGGTQVTVL
notes: human IgG1, anti-B5
VACV B5 protein [12]
  PRNT Emax, VACV EV+C': 77%
  PRNT IC50, VACV EV+C': 0.02 µg/mL
VACV B5 protein [13]
  EC50: 0.066 µg/mL
VACV B5 protein [14]
  EC50: 0.19 µg/mL

B10: VACV-80 (antibody, V domains shown)
VH: EVQLVESGGGLVQPGESLKISCAATGFTFSSYWMHWVRQAPGKGLVWVSGINSDGSSTSYADSVKGRFTIARDNAKGTLYLQMNSLRAEDTAVYYCARVGAVRIAAAAPDYWGQGTLVTVSS
VL: not shown
notes: human IgG1, anti-A33
VACV A33 protein [8]
  EC50: > 69 µg/mL
VACV A33 protein [9]
  EC50: 0.065 µg/mL

B11: VACV-304 (antibody, V domains shown)
VH: EVQLVESGGGLVQPGGSLRLSCVVSGFTFSNYWMSWVRQAPGKGLEWVANIKQDGSKKYYVDSVTGRFTISRDNAKNSLYLQMNSLRAEDTAVYYCATLNLELAVDAISEALKWGQGTLVTVSS
VL: SYELTQPPSVSVSPGQTARITCSGDALPKQFAYWYQQKPGQAPVVMIYKDSERPSGIPERFSGSSSGTTVTLTISGVQAEDEADYYCQSVDNSGTYEVFGGGTQLTVL
notes: human IgG1, anti-D8
VACV D8 protein [4]
  PRNT Emax, VACV MV+C': 69%
  PRNT IC50, VACV MV+C': 0.02 µg/mL
VACV D8 protein [5]
  EC50: 0.04 µg/mL
VACV D8 protein [6]
  EC50: 0.05 µg/mL

B12: MPXV-56 (antibody, V domains shown)
VH: QVQLQQSGPGLVKPSQTLSLTCAISGDSVSSNSAAWIWIRQSPSRGLEWLGTTYYRSEWYSDYPASVKSRVTINADTSKNQFSLQLNSVTPEDTAVYYCARITVGYNSPHLRVTRGWLDPWGPGNP
VL: not shown
notes: human IgG2, anti-A33
VACV A33 protein [7]
  PRNT Emax, VACV EV+C': 56%
  PRNT IC50, VACV EV+C': 0.16 µg/mL
VACV A33 protein [8]
  EC50: > 0.07 µg/mL
VACV A33 protein [9]
  EC50: 0.06 µg/mL

B13: MPXV-2 (antibody, V domains shown)
VH: QVQLVQSGAEVKKPGASVKVSCKTSGYTFTTYAVHWVRQAPGQRLEWMGWINPGDGDTRYAQKFQDRVTISSDTSATTVYMELSSLRSEDTAVYFCARPRASLLRYFDWLFEQWGQETLVTVSS
VL: EIVLTQSPGTLSLSPGDRATLSCGASQSIHHNYVAWYQQRPGQAPRLLIFGASSRATGIPDRFTGSGSGTEFTLTINRLEPEDFAVYYCQQYGNSVPYSFGQGTKVDIK
notes: human IgG1, anti-B5
VACV B5 protein [12]
  PRNT Emax, VACV EV+C': 67%
  PRNT IC50, VACV EV+C': 1 µg/mL
VACV B5 protein [13]
  EC50: > 6 µg/mL
VACV B5 protein [14]
  EC50: 0.03 µg/mL

B14: MPXV-26 (antibody, V domains shown)
VH: QVQLVQSGGGLIQPGGSLRLSCVVSGFNVATNYMSWVRQAPGKGLEWVSVIYSGGSTYYADSVKGRFTISRDNSKNTVFLQMNSLRPEDTAAYYCAKGGGLGLDYWGQGTLVTVSS
VL: QSALTQPPSASGSPGQSVTITCTGSSSDVGGYNYVSWYQQHPGKAPKVVIYEVNKRPSGVPHRFSGSKSGNTASLTVSGLQAEDEADYYCSSYAGTETVAFGGGTKLTVL
notes: human IgG1, anti-L1
VACV L1 protein [2]
  PRNT Emax, VACV MV: 95%
  PRNT Emax, VACV MV+C': 80%
  PRNT IC50, VACV MV: 0.3 µg/mL
  PRNT IC50, VACV MV+C': 0.7 µg/mL
VACV L1 protein [3]
  EC50: 0.05 µg/mL
